IntAct's records for PubMed 31515488

B1: von Hippel-Lindau disease tumor suppressor (Homo sapiens), P40337-2 (parent)
chain: MPRRAENWDEAEVGAEEAGVEEYGPEEDGGEESGAEESGPEESGPEELGAEEEMEAGRPRPVLRSVNSREPSQVIFCNRSPRVVLPVWLNFDGEPQPYPTLPPGTGRRIHSYRVYTLKERCLQVVRSLVKPENYRRLDIVRSLYEDLEDHPNVQKDLERLTQERIAHQRMGD
B2: PiggyBac transposable element-derived protein 1 (Homo sapiens), Q96JS3 (parent)
chain: MYEALPGPAPENEDGLVKVKEEDPTWEQVCNSQEGSSHTQEICRLRFRHFCYQEAHGPQEALAQLRELCHQWLRPEMHTKEQIMELLVLEQFLTILPKELQPCVKTYPLESGEEAVTVLENLETGSGDTGQQASVYIQGQDMHPMVAEYQGVSLECQSLQLLPGITTLKCEPPQRPQGNPQEVSGPVPHGSAHLQEKNPRDKAVVPVFNPVRSQTLVKTEEETAQAVAAEKWSHLSLTRRNLCGNSAQETVMSLSPMTEEIVTKDRLFKAKQETSEEMEQSGEASGKPNRECAPQIPCSTPIATERTVAHLNTLKDRHPGDLWARMHISSLEYAAGDITRKGRKKDKARVSELLQGLSFSGDSDVEKDNEPEIQPAQKKLKVSCFPEKSWTKRDIKPNFPSWSALDSGLLNLKSEKLNPVELFELFFDDETFNLIVNETNNYASQKNVSLEVTVQEMRCVFGVLLLSGFMRHPRREMYWEVSDTDQNLVRDAIRRDRFELIFSNLHFADNGHLDQKDKFTKLRPLIKQMNKNFLLYAPLEEYYCFDKSMCECFDSDQFLNGKPIRIGYKIWCGTTTQGYLVWFEPYQEESTMKVDEDPDLGLGGNLVMNFADVLLERGQYPYHLCFDSFFTSVKLLSALKKKGVRATGTIRENRTEKCPLMNVEHMKKMKRGYFDFRIEENNEIILCRWYGDGIISLCSNAVGIEPVNEVSCCDADNEEIPQISQPSIVKVYDECKEGVAKMDQIISKYRVRIRSKKWYSILVSYMIDVAMNNAWQLHRACNPGASLDPLDFRRFVAHFYLEHNAHLSD
partner: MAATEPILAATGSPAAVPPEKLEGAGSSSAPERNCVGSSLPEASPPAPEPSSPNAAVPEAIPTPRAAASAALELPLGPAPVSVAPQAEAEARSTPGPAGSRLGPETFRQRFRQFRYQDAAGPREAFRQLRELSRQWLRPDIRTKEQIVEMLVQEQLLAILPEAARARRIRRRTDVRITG
B3: Protein LDOC1 (Homo sapiens), O95751 (parent)
chain: MVDELVLLLHALLMRHRALSIENSQLMEQLRLLVCERASLLRQVRPPSCPVPFPETFNGESSRLPEFIVQTASYMLVNENRFCNDAMKVAFLISLLTGEAEEWVVPYIEMDSPILGDYRAFLDEMKQCFGWDDDEDDDDEEEEDDY
partner: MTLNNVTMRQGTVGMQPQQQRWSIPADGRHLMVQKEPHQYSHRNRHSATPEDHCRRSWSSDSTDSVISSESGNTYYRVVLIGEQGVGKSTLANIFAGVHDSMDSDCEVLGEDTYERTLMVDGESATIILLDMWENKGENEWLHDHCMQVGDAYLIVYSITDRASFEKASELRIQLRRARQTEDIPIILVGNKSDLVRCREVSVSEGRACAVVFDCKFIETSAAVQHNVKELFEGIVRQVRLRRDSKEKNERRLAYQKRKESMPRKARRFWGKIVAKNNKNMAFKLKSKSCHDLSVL
B4: Ligand of Numb protein X 2 (Homo sapiens), Q8N448 (parent)
chain: MGTTSDEMVSVEQTSSSSLNPLCFECGQQHWTRENHLYNYQNEVDDDLVCHICLQPLLQPLDTPCGHTFCYKCLRNFLQEKDFCPLDRKRLHFKLCKKSSILVHKLLDKLLVLCPFSSVCKDVMQRCDLEAHLKNRCPGASHRRVALERRKTSRTQAEIENENGPTLLDPAGTLSPEADCLGTGAVPVERHLTSASLSTWSEEPGLDNPAFEESAGADTTQQPLSLPEGEITTIEIHRSNPYIQLGISIVGGNETPLINIVIQEVYRDGVIARDGRLLAGDQILQVNNYNISNVSHNYARAVLSQPCNTLHLTVLRERRFGNRAHNHSDSNSPREEIFQVALHKRDSGEQLGIKLVRRTDEPGVFILDLLEGGLAAQDGRLSSNDRVLAINGHDLKYGTPELAAQIIQASGERVNLTIARPGKPQPGNTIREAGNHSSSSQHHTPPPYYSRPSSHKDLTQCVTCQEKHITVKKEPHESLGMTVAGGRGSKSGELPIFVTSVPPHGCLARDGRIKRGDVLLNINGIDLTNLSHSEAVAMLKASAASPAVALKALEVQIVEEATQNAEEQPSTFSENEYDASWSPSWVMWLGLPSTLHSCHDIVLRRSYLGSWGFSIVGGYEENHTNQPFFIKTIVLGTPAYYDGRLKCGDMIVAVNGLSTVGMSHSALVPMLKEQRNKVTLTVICWPGSLV
partner: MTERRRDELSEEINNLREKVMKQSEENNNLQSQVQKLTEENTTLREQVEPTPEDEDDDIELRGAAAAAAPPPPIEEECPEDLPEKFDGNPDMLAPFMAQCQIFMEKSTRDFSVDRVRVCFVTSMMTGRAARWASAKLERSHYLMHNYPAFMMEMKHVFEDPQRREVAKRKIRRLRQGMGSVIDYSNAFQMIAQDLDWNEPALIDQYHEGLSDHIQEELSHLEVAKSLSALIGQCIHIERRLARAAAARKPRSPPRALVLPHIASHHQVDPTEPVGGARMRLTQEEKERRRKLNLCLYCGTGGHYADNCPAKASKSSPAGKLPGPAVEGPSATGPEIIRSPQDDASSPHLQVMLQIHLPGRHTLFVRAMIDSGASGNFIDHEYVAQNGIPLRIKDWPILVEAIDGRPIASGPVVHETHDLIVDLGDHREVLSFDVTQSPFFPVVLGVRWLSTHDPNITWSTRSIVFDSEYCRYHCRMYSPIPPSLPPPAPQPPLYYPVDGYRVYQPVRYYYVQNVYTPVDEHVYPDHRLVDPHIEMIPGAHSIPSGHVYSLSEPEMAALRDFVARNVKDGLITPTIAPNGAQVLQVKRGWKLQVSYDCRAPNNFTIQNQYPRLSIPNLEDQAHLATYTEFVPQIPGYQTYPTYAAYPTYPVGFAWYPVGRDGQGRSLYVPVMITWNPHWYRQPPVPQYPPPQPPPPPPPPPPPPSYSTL
B5: Protein LDOC1 (Homo sapiens), O95751 (parent)
chain: B3 chain
partner: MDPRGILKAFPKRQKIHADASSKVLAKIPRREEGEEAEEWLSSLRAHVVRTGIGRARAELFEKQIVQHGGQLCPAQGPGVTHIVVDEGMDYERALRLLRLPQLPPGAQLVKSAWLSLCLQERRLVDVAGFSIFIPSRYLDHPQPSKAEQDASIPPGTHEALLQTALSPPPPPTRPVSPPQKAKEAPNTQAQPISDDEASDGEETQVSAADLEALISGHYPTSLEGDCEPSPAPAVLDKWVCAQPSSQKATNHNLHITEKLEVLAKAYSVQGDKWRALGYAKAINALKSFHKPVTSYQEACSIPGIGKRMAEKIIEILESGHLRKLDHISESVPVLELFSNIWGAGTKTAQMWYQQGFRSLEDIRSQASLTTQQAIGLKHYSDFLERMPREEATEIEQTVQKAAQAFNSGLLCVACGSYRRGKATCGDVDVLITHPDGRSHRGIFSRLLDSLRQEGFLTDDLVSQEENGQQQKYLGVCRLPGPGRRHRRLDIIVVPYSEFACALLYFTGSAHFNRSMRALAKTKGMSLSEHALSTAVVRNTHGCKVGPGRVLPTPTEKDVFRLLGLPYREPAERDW
B6: pre-mRNA splicing regulator USH1G (Homo sapiens), Q495M9 (parent)
chain: MNDQYHRAARDGYLELLKEATRKELNAPDEDGMTPTLWAAYHGNLESLRLIVSRGGDPDKCDIWGNTPLHLAASNGHLHCLSFLVSFGANIWCLDNDYHTPLDMAAMKGHMECVRYLDSIAAKQSSLNPKLVGKLKDKAFREAERRIRECAKLQRRHHERMERRYRRELAERSDTLSFSSLTSSTLSRRLQHLALGSHLPYSQATLHGTARGKTKMQKKLERRKQGGEGTFKVSEDGRKSARSLSGLQLGSDVMFVRQGTYANPKEWGRAPLRDMFLSDEDSVSRATLAAEPAHSEVSTDSGHDSLFTRPGLGTMVFRRNYLSSGLHGLGREDGGLDGVGAPRGRLQSSPSLDDDSLGSANSLQDRSCGEELPWDELDLGLDEDLEPETSPLETFLASLHMEDFAALLRQEKIDLEALMLCSDLDLRSISVPLGPRKKILGAVRRRRQAMERPPALEDTEL
partner: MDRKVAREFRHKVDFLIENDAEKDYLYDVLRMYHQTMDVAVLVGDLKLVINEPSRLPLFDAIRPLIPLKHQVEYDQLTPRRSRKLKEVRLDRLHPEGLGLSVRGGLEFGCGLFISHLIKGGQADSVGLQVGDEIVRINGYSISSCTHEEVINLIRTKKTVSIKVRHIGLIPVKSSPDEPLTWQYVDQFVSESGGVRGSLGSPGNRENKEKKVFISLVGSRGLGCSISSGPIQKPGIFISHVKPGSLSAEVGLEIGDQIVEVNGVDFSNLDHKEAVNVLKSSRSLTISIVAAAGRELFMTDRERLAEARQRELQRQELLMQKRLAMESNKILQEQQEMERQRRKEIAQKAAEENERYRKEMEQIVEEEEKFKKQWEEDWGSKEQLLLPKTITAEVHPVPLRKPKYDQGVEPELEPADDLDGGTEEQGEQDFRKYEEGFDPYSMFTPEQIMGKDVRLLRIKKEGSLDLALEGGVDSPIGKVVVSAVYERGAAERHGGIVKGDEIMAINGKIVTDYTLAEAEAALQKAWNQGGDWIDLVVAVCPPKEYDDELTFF

Variants of: B1
Conditions: with mdfi_human MDFI

Variant	effect of a mutation on the interaction
H167D	disrupting interaction strength

Variants of: B2
Conditions: with scnd1_human SCAND1, P57086

Variant	effect of a mutation on the interaction
G244E	with no effect
Q248E	with no effect
I678V	with no effect
P256L	with no effect
N398S	with no effect

Variants of: B3
Conditions: with gem_human GEM

Variant	effect of a mutation on the interaction
L12H	disrupting interaction strength

Variants of: B4
Conditions: with peg10_human PEG10, Q86TG7

Variant	effect of a mutation on the interaction
T183I	with no effect
V145I	with no effect

Variants of: B5
Conditions: with dpoll_human POLL

Variant	effect of a mutation on the interaction
L12H	disrupting interaction strength

Variants of: B6
Conditions: with ush1c_human USH1C

Variant	effect of a mutation on the interaction
L16V	with no effect
E393D	with no effect
